{
  "source": "the supplement of paper PMC9170038",
  "tested_on": "MS2 coat protein",
  "experiment": "apparent KD of MS2 coat protein; designed switch direction (-1 OFF switch, 1 ON switch): -1; higher = weaker reporter binding",
  "procedure,_shortened": "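Designed RNA switches were transcribed on Illumina chips by stalled E. coli RNA polymerase and titrated with SNAP-549-labelled MS2 coat protein from 0.7 or 1.5 nM, doubling to 3 µM. Step length ran from 0.8–1.5 h at the lowest concentration to 10–20 min at the highest. The apparent KD is the median over clusters for each design, from curve-fitted normalised cluster fluorescence.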",
  "key": {"[1]": {"details": "Eterna round: R95, input ligand: microRNA oligo, concentration not stated"}, "[2]": {"details": "input ligand: microRNA oligo, concentration not stated"}, "[3]": {"details": "Eterna round: R95, input ligand: FMN 200 uM"}, "[4]": {"details": "Eterna round: R95, input ligand: none"}},
  "data": [
    {"sequence": "AGUCUGCGAGGAUAUACAUGAGGAUCACCCAUGUGCGAAGAACUAGUGAGGUCGAUUGGUAGAAGGCGCGGACA [Mat - Exclusion 3 - Mod of JL D88] (puzzle: Exclusion 3)", "values": [
      {"measurement": "apparent KD of MS2 coat protein", "setting": "[1]", "result": 241, "unit": "nM"}
    ]},
    {"sequence": "GGUGCGUUUGUGAGGAUAUGCUGGUCCUUGGUUCGGCAGAAGGCACAUGAGGAUCACCCAUGUGGUGUCGCUCC [salish99_Bmod_Ex4_050] (puzzle: Brourd's mod of Exclusion 4)", "values": [
      {"measurement": "apparent KD of MS2 coat protein", "setting": "[1]", "result": 36.4, "unit": "nM"}
    ]},
    {"sequence": "CGGCAUGAAGGAUAUACAUGAGGAUCACCCAUGUAAGUUACCUACAUGGCCUCACCUAGUAGAAGGUUAUCCGG [Eternabot (L2) Solution 72] (Eterna round: R97, puzzle: Exclusion 3)", "values": [
      {"measurement": "apparent KD of MS2 coat protein", "setting": "input ligand: FMN 200 uM", "result": 94.4, "unit": "nM"},
      {"measurement": "apparent KD of MS2 coat protein", "setting": "input ligand: none", "result": 28, "unit": "nM"}
    ]},
    {"sequence": "GUGUAGUCAGGAUAUACAUAGGAAGAGAAGAGAAGAUAAGCACAUGAGGAUCACCCAUGUAGAAGGGACAGUGU [Excluse me!! 3 - Jieux - Exclusion 2] (puzzle: Exclusion 2)", "values": [
      {"measurement": "apparent KD of MS2 coat protein", "setting": "[1]", "result": 57.4, "unit": "nM"}
    ]},
    {"sequence": "GGAUCGAGUGUGAGGAUAUGCUGGUCCUUGGAUCAGCAGAAGGCACAUGAGGAUCACCCAUGUGAAGACGGUCC [JL bmx4 3.16] (Eterna round: R96, puzzle: Brourd's mod of Exclusion 4)", "values": [
      {"measurement": "apparent KD of MS2 coat protein", "setting": "[2]", "result": 25.9, "unit": "nM"}
    ]},
    {"sequence": "AGUGCUGCAGGAUAUUCUAUUAAUUACAUGAGGAUCACCCAUGUGAAUGGACAAGGGUGUGAAGAAGGGUGGUGCG [Omei Ex5 A17h] (Eterna round: R97, puzzle: Exclusion 5)", "values": [
      {"measurement": "apparent KD of MS2 coat protein", "setting": "input ligand: FMN 200 uM", "result": 375, "unit": "nM"},
      {"measurement": "apparent KD of MS2 coat protein", "setting": "input ligand: none", "result": 605, "unit": "nM"}
    ]},
    {"sequence": "UCUUAUUGAGGAUAUACAUUAAAAUACAUGAGGAUCACCCAUGUUCUUCAAUGUAUAUAUGUAGAAGGCAGAAGAU [Mat - Exclusion 5 - JL Mod - D26] (Eterna round: R97, puzzle: Exclusion 5)", "values": [
      {"measurement": "apparent KD of MS2 coat protein", "setting": "input ligand: FMN 200 uM", "result": 155, "unit": "nM"},
      {"measurement": "apparent KD of MS2 coat protein", "setting": "input ligand: none", "result": 36.9, "unit": "nM"}
    ]},
    {"sequence": "UUAUUAUAUGUAGGAUAUGCAUAUUAUUAUUAUGCAGAAGGACAUGAGGAUCACCCAUGUAUGUUGUUAUUAUAUAUUAUAUAU [Title] (Eterna round: R96, puzzle: Exclusion NG 1)", "values": [
      {"measurement": "apparent KD of MS2 coat protein", "setting": "[2]", "result": 20.6, "unit": "nM"}
    ]},
    {"sequence": "GACGAGGGAGGAUAUGCACGAGGGAUAUCUGACAUGCCUAUACAUGAGGAUCACCCAUGUAGAAGGCCCAGAUA [Veorleerma] (puzzle: Exclusion 2)", "values": [
      {"measurement": "apparent KD of MS2 coat protein", "setting": "[1]", "result": 11.9, "unit": "nM"}
    ]},
    {"sequence": "AAGGGUACUUUCGGAACGACAUGAGGAUCACCCAUGUAGACUGAGGAUAUCUACUACUAAGGACGGGAGAAGGCAGUGUAAUGU [Ex NG3 #76] (Eterna round: R96, puzzle: Exclusion NG 3)", "values": [
      {"measurement": "apparent KD of MS2 coat protein", "setting": "[2]", "result": 11.8, "unit": "nM"}
    ]},
    {"sequence": "CCCUCACAUGAGGAUCACCCAUGUCAGGAUAUUCGGCGGUCAAUUGACCGCCUUAAAGGAAGAAGGGACGUAAA [Masore] (puzzle: Exclusion 1)", "values": [
      {"measurement": "apparent KD of MS2 coat protein", "setting": "[1]", "result": 11.8, "unit": "nM"}
    ]},
    {"sequence": "AGAAAUGCCCAUGGCCACAAGCUUUUUGCUUGUCUUACUACAUGAGGAUCACCCAUGUAACAUGGGCUCCUGACAAA [Soarriat] (puzzle: Sensor v3, turn-off variant 2)", "values": [
      {"measurement": "apparent KD of MS2 coat protein", "setting": "[3]", "result": 12.9, "unit": "nM"},
      {"measurement": "apparent KD of MS2 coat protein", "setting": "[1]", "result": 9.12, "unit": "nM"},
      {"measurement": "apparent KD of MS2 coat protein", "setting": "[4]", "result": 10.9, "unit": "nM"}
    ]},
    {"sequence": "AACGACUGAGGAUAUACAUGAGGAUCACCCAUGUAUUGAAAUACGUGCUUGGUCAACUGUAGAAGGCAGAAUAA [Oresza] (puzzle: Exclusion 3)", "values": [
      {"measurement": "apparent KD of MS2 coat protein", "setting": "[1]", "result": 15.9, "unit": "nM"}
    ]},
    {"sequence": "UUUCCGGCGCGGGUUUUUUACAUGAGGAUCACCCAUGUCCUCUGCUUGUCUUGUCUUGGGCUUUUUUUGGGUUCGGG [-19, -39.7 kcal, A 8%] (Eterna round: R97, puzzle: Sensor, turn-off variant 1)", "values": [
      {"measurement": "apparent KD of MS2 coat protein", "setting": "input ligand: FMN 200 uM", "result": 697, "unit": "nM"}
    ]},
    {"sequence": "GGUGCGUAUGUGAGGAUAUGCUGGUCCUUGGAUCAGCAGAAGGCACAUGAGGAUCACCCAUGUGGUGUCGUUCC [salish99_Bmod_Ex4_020] (puzzle: Brourd's mod of Exclusion 4)", "values": [
      {"measurement": "apparent KD of MS2 coat protein", "setting": "[1]", "result": 363, "unit": "nM"}
    ]},
    {"sequence": "GAUAAGGUAGGAUAUACGAAUAAAUAGGGUAGUAAUAAUACACAUGAGGAUCACCCAUGUAGAAGGACCAAUAG [Mat - Exclusion 2 - Mod of my Tesla design - D41] (puzzle: Exclusion 2)", "values": [
      {"measurement": "apparent KD of MS2 coat protein", "setting": "[3]", "result": 37.4, "unit": "nM"},
      {"measurement": "apparent KD of MS2 coat protein", "setting": "[1]", "result": 19.4, "unit": "nM"},
      {"measurement": "apparent KD of MS2 coat protein", "setting": "[4]", "result": 21.4, "unit": "nM"}
    ]}
  ]
}
